For this assay, the target named is SARS-COV-1 spike protein on VSV-delG pseudotyped particles (SARS-COV-1, UniProt P59594 14-1255). In words: cell-based or functional assay.

B1: VHH72_h1_S56A (VHH)
VHH: EVQLVESGGGLVQPGGSLRLSCAASGRTFSEYAMGWFRQAPGKEREFVATISWSGGATYYTDSVKGRFTISRDNAKNTVYLQMNSLRPEDTAVYYCAAAGLGTVVSEWDYDYDYWGQGTLVTVSS
Take B1: the “IC50 Mean VSV-dG-spike SARS-COV-1” value is 0.013 µg/mL.
